Laboratory results reported in paper PMC3605159, “Twist1 Controls a Cell-Specification Switch Governing Cell Fate Decisions within the Cardiac Neural Crest” (PLoS Genetics, 2013).
Where a chain is given by its changes, count along the chain named. Names and notes keep the numbering of the source. Blank lines part the entries; values can stand above or below the binder they belong to.

Target: T1, Sox10 (rat, UniProt O55170 1-466)
T1 sequence (looked up): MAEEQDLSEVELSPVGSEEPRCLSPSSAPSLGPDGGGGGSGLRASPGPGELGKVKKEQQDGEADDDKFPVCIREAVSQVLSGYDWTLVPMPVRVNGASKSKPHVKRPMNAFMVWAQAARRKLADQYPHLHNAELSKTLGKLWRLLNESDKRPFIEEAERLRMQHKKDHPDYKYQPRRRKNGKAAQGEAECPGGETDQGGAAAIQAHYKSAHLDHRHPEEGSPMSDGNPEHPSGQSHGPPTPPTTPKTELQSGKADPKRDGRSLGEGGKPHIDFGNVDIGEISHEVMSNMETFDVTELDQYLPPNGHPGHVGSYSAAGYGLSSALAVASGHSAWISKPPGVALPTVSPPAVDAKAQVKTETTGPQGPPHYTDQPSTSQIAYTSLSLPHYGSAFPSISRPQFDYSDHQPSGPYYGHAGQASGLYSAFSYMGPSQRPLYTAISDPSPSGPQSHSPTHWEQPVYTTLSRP
Assay: cell-based or functional assay

- luciferase transactivation of the Phox2b promoter by Sox10 in HeLa cells with Twist1 co-expressed (Sox10 alone 48.9+/−2.2-fold): 26.3 fold
B1: Twist1 (natural protein, UniProt P26687 1-206, looked up)
chain: MMQDVSSSPVSPADDSLSNSEEEPDRQQPASGKRGARKRRSSRRSAGGSAGPGGATGGGIGGGDEPGSPAQGKRGKKSAGGGGGGGAGGGGGGGGGSSSGGGSPQSYEELQTQRVMANVRERQRTQSLNEAFAALRKIIPTLPSDKLSKIQTLKLAARYIDFLYQVLQSDELDSKMASCSYVAHERLSYAFSVWRMEGAWSMSASH

- luciferase transactivation of the Phox2b promoter by Sox10 in HeLa cells with Twist1 S192P co-expressed (Sox10 alone 48.9+/−2.2-fold): 49.3 fold
B2: Twist1 S192P (natural protein, UniProt P26687 1-206, looked up)
chain: B1 chain with S192P
